The source of these data is the DeepSol protein solubility set.

The series is described as follows: soluble on expression in E. coli; label from the status in PepcDB or PDB records.
In the case of “MPTFLLVNDDGYFSPGINALREALKSLGRVVVVAPDRNLSGVGHSLTFTEPLKMRKIDTDFYTVIDGTPADCVHLGYRVILEEKKPDLVLSGINEGPNLGEDITYSGTVSGAMEGRILGIPSIAFSAFGRENIMFEEIAKVCVDIVKKVLNEGIPEDTYLNVNIPNLRYEEIKGIKVTRQGKRAYKERVFKYIDPYGKPFYWIAAEEFGWHAEEGTDYWAVLNGYVSVTPLHLDLTNYKVMKSIKYLEDSP”, the “soluble on expression in E. coli” value was “soluble”.
As for “MPTIQSVRRTQSGRPGKRAINLSLSADVLDAARQLDINISQVCDTYLREVVRHEQERRWREEHADFITAYNATIEAENLPLDEWRSF”, the “soluble on expression in E. coli” value is given as “not soluble”.
Turning to “MPTSNTAFLIQNLPASRTAPHYRAGLDPVKGGLALQRSGGRVYISLLMGKRGFLRREASPKEVLEHCLRLAREVAPPTPKGKRGRPWRYSHALYLALLLFRAFFHLTYRETEASLQDLMEGPFPSHQSLARYALKHLDPKLLEALLERLSRELEAHLAPESSPEGEAASDEAPAHLAALSPP”, the “soluble on expression in E. coli” value is on record as “soluble”.
Then “MPTVSVKWQKKVLDGIEIDVSLPPYVFKAQLYDLTGVPPERQKIMVKGGLLKDDGDWAAIGVKDGQKLMMMGTADEIVKAPEKAIVFAEDLPEEALATNLGYSAGLVNLGNTCYMNSTVQCLKSVPELKSALSNYSLAARSNDVDQTSHMLTVATRELFGELDRSVLRKKYPQFSQLQNGMHMQQDAEECWTQLLYTLSQSLKAPTSSEGADAVKALFGVNLQSRIKLGVLDNVTDSTVISKCTLHCQESGEESSETESVYSLKCHISHEVNHLHEGLKHGLKGELEKTSPALGRTALYVKESLIDSLPRYLTVQFVRFFWKRESNQKAKILRKVDYPLVLDIFDLCSEDLRKKLEAPRQKLREEEGKKLGLQTSAKSGSKDSDVKMTDAEASANGSGESSTVNPQEGTSSEKETHMTGIYDLVAVLTHKGRSADSGHYVAWVKQESGKWIQYDDDNPSMQREEDITKLSGGGDWHMAYITMYKARFVSM”, with “soluble”; and “MPTYKLTYFNSRFYAEPARILFHLAGVPFEDIRIIHGDGTWEQIKDKTPFGQVPVLNINGFEIPQSTAIIRYLATKFGYAGKTPEEQAWADAICDQVRDFMAVPFKDIVVAKRVGKTEEEVSQLINEGFVPGRDAYFKIITRILEKNKSGFLVGDGITFADIVVVENLTTLQKNQLFEASKYPELAALREKVYAIPAIKKWVEARPDTQY”, with “not soluble”; and “MPVRASIEPLTWENAFFGVNSAIVRITSEAPLLTPDALAPWSRVQAKIAASNTGELDALQQLGFSLVEGEVDLALPVNNVSDSGAVVAQETDIPALRQLASAAFAQSRFRAPWYAPDASGRFYAQWIENAVRGTFDHQCLILRAASGDIRGYVSLRELNATDARIGLLAGRGAGAELMQTALNWAYARGKTTLRVATQMGNTAALKRYIQSGANVESTAYWLYR”, with “soluble”.
Turning to “MPVSGYLRIKGKRVGVEIFPFQAYHSQIKEVRQQVGNMAILPLRTQVRGPAPSANIESDIIDESLYYFKANVFFRTYEIKSDVDRVLIYVTLYITECLKKLNRSTSKAQGQQDMYSLAISKFDIPGDAGFPLNAVYAKPQTAQDADLMRQYLLQLRHETGNRVLEKVFNTEDGKPNKWWTCFAKKKFMEKSLAGPGQLEHHHHHH”, the “soluble on expression in E. coli” value is on record as “not soluble”.
For “MPVSNEIWQLLSRLAEDIRPIGVNISAGEPNRLWTEAKWRALLERFPGERFVVLSGPDDLDAKRRLEEQCPNAVASPPTRNLYEASCIVAKLRLLVTPDTSMVHVASATGTPVAGLYREAPQDISRFGPYAIPYEIVISPTGEVSGIKPESVADAVRRLMARAIGREALEHHHHHH”, the “soluble on expression in E. coli” value is given as “not soluble”.
Turning to “MPVTRPAKINTYTRIIDASLALFNEEGERNISTNHIAAHLGISPGNLYYHFRNKDEIIVQLFKRYSEALLAYLNEAVLPSDVEDSINYMAGIYDVMWEYRFLFSDVNTLLARSAELLGEHNTFTQAKVSPLLVNLLTQLNGLNIIQADQTAMNDLAVNMWMVTKYWFDFDSSLRGRTKLTEDSKARGIRRTLSLLRPYLLPEHRKKYDRKIGNGNP”, the “soluble on expression in E. coli” value is “soluble”.
Then “MPWRTALKVALAAGEAVAKALTRAVRDEIKQTQQAAARHAASTGQSASETRENANSNAKLGISLEESLQILNVKTPLNREEVEKHYEHLFNINDKSKGGTLYLQSKVFRAKERIDEEFGRIELKEEKKKEENAKTE”, with “not soluble”; and “MPYDFYTDGSALGNGQQGSRGGYGVHVPSDTSKNVSGSYPHGPQTNNRYELEAIKHATQMARDVPDSHVRIHTDSKNAKDSVTKWNDNWKSNGYKTSSGQDVKNQDLIRDIDRNVQALKHSGKTVEFEHVRGHSNRMYI”, with “not soluble”.
In the case of “MPYVERSNIVGLFGGSFNPPHEGHLLVAKTAIRRLRLNQLWWMVTPGNPLKDCTHLPPLEKRMRLSLELIDDPKIRVTGFEQAIGSKVSVETISHILAHYRRVHFVWIMGADSLATIHHWYRWHDIISMLPIAIIDRPLVHMSALSSSMAHIYRSFRLDERESIRLPFMKPPAWIYLHGALSFQSSTNLRLKENAFF”, the “soluble on expression in E. coli” value is “not soluble”.
As to “MQALKTKSNIGEMFNIQEKENGEIAISGRELHQALEVSTRYDKWFERMTEYGFENGIDFISQVEKVHGQKRARTYEQVNHILTLDTAKEIAMIQRSEPGKRARQYFIQVEKAWNSPEMIMQRALKIANNTINQLETKIERDKPKIVFADAVATTKTSILVGELAKIIKQNGINIGQRRLFEWLRQNGFLIKRKGVDYNMPTQYSMERELFEIKETSITHSDGHTSISKTPKVTGKGQQYFVNKFLGEKQTS”, the “soluble on expression in E. coli” value is reported as “not soluble”.
As to “MQAQTVVHPSIKTKTTFAIVVDQKSYDEAKSEIDAYRTSIEKEGLGTYLLIDDWKRPEPIREQLVKLHENEKTPLEGCVFIGDIPIPMIRDAHHLSSAFKRSPKANWQKSSVPSDRYYDDFGLKFDYIKQDSLIPDYHYMTLRADSKQYISPDIYSARIRPLHLEGENRYQMLRDYLKKAVAEKAKQNAFDQLTMARGHGYNSEDPLAWSGEQIALREQLPQIFKSGNTVKFYDFNMRYPMKPLYLNEIQREGLDVMLFHHHGGPTMQYINGYENGSGINLSIENAKIFLRSKVPSYAKKHGREAAIKEYAKQYGVPESWCAEAFDEEKIKSDSIVNRNMDIYTEDIRLLTPNARFILFDACFNGSFHLDDNIVGSYIFNKGKTIATMGCTVNTIQDKWPDEFLGLLAAGMRIGQFTRFTCFLENHLIGDPTFHFTNNAGLDMDINQALVAQEGNVTFWKKQLNSPMADMQAMALRQLSMANYSGLVELLKKSYHESNYFVVRLEALRLLALNYPTEVADVLQTAMNDSYELIRRYAVEYVEKNCNPELLPAWIESYLLRGHENRHRFRIFSAINTFDHDMALNELKKQAADWSFYDSSYVNELLEYLPRQKKGLERDFALIDSPESTTKQIQSEISRFRNKPIAKAIEPLLNIIKNESQEEELRILAAETLGWYNLYYNKADIIKELNTFRTSNQKLMNEVTKTINRLKSQNR”, the “soluble on expression in E. coli” value is given as “not soluble”.
As to “MQCSRALALRLILIAPNGTSVKTLLRPRLDESWEQFVRRRLATPIRRQRIACDRTQKEVADIVGVSHHSIQRWELAYVRSRPIAHIVWAQAHDFLLGLELIHALGRTPRRVSRAHHVHSGR”, the “soluble on expression in E. coli” value is listed as “not soluble”.
For “MQDGMYQRFLRQHVHPEETGGSDRYCNLMMQRRKMTLYHCKRFNTFIHEDIWNIRSICSTTNIQCKNGKMNCHEGVVKVTDCRDTGSSRAPNCRYRAIASTRRVVIACEGNPQVPVHFDG”, the “soluble on expression in E. coli” value was “soluble”.
With “MQDLICYKKMPQWNSQTLPAAFQEKHNTQEGTWAKLTVLKGEMTFSMLTEDGDTLETFHFSEQNQPPFVEPQAWHRIVSFSDDLECQLSFFCSAEDFYHKKYGLTQTHSEVINAVQHIKPGKTLDLGCGGGRNSLYLNLRGFDVTACDKHEQSIDSLNNIIQSEALENIRAGVYNINLAEIKEQYDFILSTVVLMFLERDRIPHIISNMQGSTVDGGYNLIIAAMSTEDCPCPMPFSFTFKEDELKNYYADWEILKYNEDMGELHKTDAQGNRIKLRFATLLARKPLEHHHHHH”, the “soluble on expression in E. coli” value is recorded as “soluble”.
